Measurements from patent US20230052680A1 (DIZAL JIANGSU PHARMACEUTICAL, published 2023).

How the values were obtained:
[1] = target: T1, recombinant rat/mouse FGFR2b-Fc (rat); experiment: ELISA, plate coated with 0.1 ug/ml rat/mouse FGFR2b-Fc, anti-human IgG HRP detection
T1 construct: also called rat FGFR2b fused with murine Fc
Description: (§1) The cross-species binding of Ab 36c to recombinant cyno, rat/mouse, and human FGFR2b-Fc fusion proteins was conducted with ELISA. In brief, 96-well ELISA plate were coated with about 100 ul/well 0.1 μg/ml recombinant human FGFR2b-Fc, recombinant rat/mouse FGFR2b-Fc, or recombinant cyno FGFR2b-Fc protein in PBS overnight. Then the plate was blocked with 2% BSA in PBS with 0.05% Tween20 and incubation with antibody samples for 60 min at room temperature, and then washed twice in 1×TBST (Cell Signaling Technology, #9997) and followed by incubation with anti-human lgG HRP (Horseradish peroxidase) conjugate for 60 min at a room temperature. HRP activity was detected with tetra-methylbenzidine substrate (Cell Signaling Technology, #7004) and the reaction was stopped with stop solution (Cell Signaling Technology, #7002). The plate was read at 450 nm. […] Ab 36c has the highest binding affinity to rat/mouse FGFR2b, followed by human FGFR2b, and then cyno FGFR2b.

[2] = target: T2, recombinant cyno FGFR2b-Fc (Cynomolgus monkey); experiment: ELISA, plate coated with 0.1 ug/ml cyno FGFR2b-Fc, anti-human IgG HRP detection
T2 construct: also called Cynomolgus monkey FGFR2b ECD-murine Fc; cynomolgus FGFR2b
Description: as §1

[3] = target: T3, recombinant human FGFR4-Fc (human, UniProt P22455 22-369); experiment: ELISA, plate coated with HuFGFR4
T3 construct: Bought (R&D Systems); not shown: human Fc of the bought fusion protein; not described
T3 sequence (looked up): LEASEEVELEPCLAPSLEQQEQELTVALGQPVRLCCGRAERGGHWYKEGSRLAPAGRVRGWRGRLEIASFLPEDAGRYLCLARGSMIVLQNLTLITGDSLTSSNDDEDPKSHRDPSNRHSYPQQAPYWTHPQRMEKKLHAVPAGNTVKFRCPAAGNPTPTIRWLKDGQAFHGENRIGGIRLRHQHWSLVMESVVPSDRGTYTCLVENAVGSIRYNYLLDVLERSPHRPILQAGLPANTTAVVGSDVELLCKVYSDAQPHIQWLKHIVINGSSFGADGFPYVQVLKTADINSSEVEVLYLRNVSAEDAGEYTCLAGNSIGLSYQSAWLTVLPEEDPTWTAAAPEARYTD

[4] = target: T4, recombinant human FGFR1b-Fc (human, UniProt P11362-19 22-376, limits assumed); experiment: ELISA, plate coated with HuFGFR1b
T4 construct: Bought (R&D Systems); not shown: human Fc of the bought fusion protein; not described
T4 sequence (looked up): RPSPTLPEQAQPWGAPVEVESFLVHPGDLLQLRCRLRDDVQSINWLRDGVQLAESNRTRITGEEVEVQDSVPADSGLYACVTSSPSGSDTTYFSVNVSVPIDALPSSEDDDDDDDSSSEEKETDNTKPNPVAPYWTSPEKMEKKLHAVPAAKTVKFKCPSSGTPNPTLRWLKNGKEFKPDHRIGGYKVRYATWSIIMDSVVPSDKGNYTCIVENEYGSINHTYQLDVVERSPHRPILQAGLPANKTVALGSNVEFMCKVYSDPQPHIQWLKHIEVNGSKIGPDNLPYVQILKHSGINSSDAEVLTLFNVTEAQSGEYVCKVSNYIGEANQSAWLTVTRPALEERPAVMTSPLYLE

[5] = target: T5, recombinant human FGFR3b-Fc (human, UniProt P22607-2 23-377); experiment: ELISA, plate coated with HuFGFR3b
T5 construct: Bought (R&D Systems); not shown: human Fc of the bought fusion protein; not described
T5 sequence (looked up): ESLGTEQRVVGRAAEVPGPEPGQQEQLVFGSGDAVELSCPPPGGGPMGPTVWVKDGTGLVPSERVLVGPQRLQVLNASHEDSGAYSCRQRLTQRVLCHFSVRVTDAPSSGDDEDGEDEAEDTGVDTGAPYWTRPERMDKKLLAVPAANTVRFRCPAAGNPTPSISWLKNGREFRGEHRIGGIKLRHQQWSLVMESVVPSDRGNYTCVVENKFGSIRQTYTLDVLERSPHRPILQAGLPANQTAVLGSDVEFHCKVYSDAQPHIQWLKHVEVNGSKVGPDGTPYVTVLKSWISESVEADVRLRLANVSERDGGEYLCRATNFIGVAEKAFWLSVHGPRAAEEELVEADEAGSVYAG

[6] = target: T4, recombinant human FGFR1b-Fc; experiment: ELISA on FGFR family Fc fusion proteins
[7] = target: T5, recombinant human FGFR3b-Fc; experiment: ELISA on FGFR family Fc fusion proteins
[8] = target: T3, recombinant human FGFR4-Fc; experiment: ELISA on FGFR family Fc fusion proteins

B1: Ab 36c (antibody, V domains shown)
VH: QPYLQQSGAELVRPGASVKMSCKASGYTFTSYNMHWVKQTPRQGLEWIGAIFPENGDTSYNQKFKGKATLTVDKSSSTAYMQLSSLTSEDSAVYFCARGGFDYWGQGTTLTVSS
VL: DIVMTQSHKFMSTSVGDRVSITCKASQDVSTNVAWYQQKPGQSPKLLIFSASYRYTGVPDRFAGSGSGTDFTFTISSVQAEDLAVYYCQQHYSSPYTFGGGTKLDIK
notes: Chimeric: mouse VH and VL fused to human heavy and light chain constant regions; also called chimeric Ab 36; Ab c 36c
EC50 (read off the curve) [1]: ~0.2 nM
EC50 (read off the curve) [2]: ~0.4 nM

B2: Ab 36 (antibody, V domains shown)
VH: B1 VH
VL: B1 VL
notes: Mouse monoclonal antibody from a hybridoma; also called mouse Ab 36; antibody 36
binding result [3]: no binding
binding result [4]: no binding
binding result [5]: no binding

B3: Ab hu36-2 (antibody, human IgG1, V domains shown)
VH: QVQLVQSGAEVKKPGSSVKVSCKASGYTFTSYNMHWVRQAPGQGLEWIGAIFPENGDTSYNQKFKGRATITADKSTSTAYMELSSLRSEDTAVYYCARGGFDYWGQGTTVTVSS
VL: DIQMTQSPSSLSASVGDRVTITCKASQDVSTNVAWYQQKPGKAPKLLIFSASYRYTGVPSRFSGSGSGTDFTFTISSLQPEDIATYYCQQHYSSPYTFGQGTKLEIK
notes: Humanized antibody with human IgG1
binding result [6]: no binding
binding result [7]: no binding
binding result [8]: no binding
